Laboratory results taken from patent publication US20250332297A1, “DLL3-SPECIFIC BINDING CONSTRUCTS AND THEIR USE IN RADIOTHERAPY” (MOLECULAR PARTNERS AG, priority 2024, published 2025).

Legend:
[1] = biological target: T1, Human DLL3 expressed on cells (HEK293T-hDLL3, NCI-H82, SHP-77, MC38-hDLL3) (human, UniProt Q9NYJ7 27-618); assay: flow cytometry titration on HEK293T-hDLL3 cells, with HSA
T1 construct: also called DLL3 endogenously expressed on human cells
T1 sequence: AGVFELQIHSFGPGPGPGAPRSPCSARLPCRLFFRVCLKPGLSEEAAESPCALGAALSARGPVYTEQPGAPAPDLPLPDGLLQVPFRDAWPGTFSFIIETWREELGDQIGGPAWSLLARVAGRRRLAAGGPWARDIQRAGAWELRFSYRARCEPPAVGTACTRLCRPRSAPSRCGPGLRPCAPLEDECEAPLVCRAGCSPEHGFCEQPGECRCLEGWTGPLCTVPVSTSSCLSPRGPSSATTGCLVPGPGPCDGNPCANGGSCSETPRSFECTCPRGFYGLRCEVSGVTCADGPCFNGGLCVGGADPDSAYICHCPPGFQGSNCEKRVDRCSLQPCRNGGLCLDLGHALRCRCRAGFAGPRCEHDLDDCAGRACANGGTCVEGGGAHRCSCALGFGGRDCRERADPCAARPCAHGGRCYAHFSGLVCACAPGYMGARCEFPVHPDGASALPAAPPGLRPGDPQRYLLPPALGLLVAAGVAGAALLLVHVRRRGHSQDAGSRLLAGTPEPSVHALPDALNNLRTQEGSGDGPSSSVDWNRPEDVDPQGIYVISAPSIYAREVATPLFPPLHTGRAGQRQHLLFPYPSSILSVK
Description: (§1) Cell binding titration assays were performed for selected His-tagged single domain (1 D) and two domain (2D) designed ankyrin repeat proteins to determine binding to human DLL3 expressed on HEK293T-huDLL3 cells in absence and presence of human serum albumin. […] HEK293T-hDLL3 cells are HEK293T cells that were stably transfected to express human DLL3 on their surface.
(§2) In brief, 1×10⁵ cells/well were resuspended in 100 μl DARPin dilution (500 nM, 1:5 serial diluted) and incubated for 1 h at 4° C. Cells were washed twice with PBS and resuspended in 100 μl anti-DARPin antibody (rabbit anti-DARPin 1.4.8) and LIVE/DEAD fixable cell stain (1:1000, Thermo Fisher #L34957). This step was performed in absence and presence of […] Human Serum Albumin (CSL Behring #150570). After incubation and washing, cells were incubated with detection antibody for 30 minutes (Goat […] IgG (H+L), AF647, Thermo Fisher #21445). Cells were fixed (Paraformaldehyde Solution, LucernaChem) and acquired at Attune N×T (Thermo Life Technologies). Raw fcs files were exported and analyzed using FlowJo software. MFI values of live AF647-positive cells were exported from FlowJo and plotted using GraphPad Prism software.

[2] = biological target: T1, Human DLL3 expressed on cells …; assay: flow cytometry titration on HEK293T-hDLL3 cells, without HSA
Description: as §1, §2

[3] = biological target: T2, hDLL3 ECD-Avi-Fckih (biotinylated extracellular domain of human DLL3, residues 27 to 466, Avi-tag, 3C site, … (human, UniProt Q9NYJ7 27-466, biotinylated at the Avi-tag)); assay: SPR (ProteOn), biotinylated hDLL3 ECD-Avi-Fckih on chip, DARPin as analyte, 1:1 Langmuir fit
T2 construct: The make-up of the second Fc chain of the knob-into-hole pair is not described; also called bio-DLL3; recombinant human DLL3; not shown: Avi-tag, 3C protease recognition site and Fc knob into hole
T2 sequence: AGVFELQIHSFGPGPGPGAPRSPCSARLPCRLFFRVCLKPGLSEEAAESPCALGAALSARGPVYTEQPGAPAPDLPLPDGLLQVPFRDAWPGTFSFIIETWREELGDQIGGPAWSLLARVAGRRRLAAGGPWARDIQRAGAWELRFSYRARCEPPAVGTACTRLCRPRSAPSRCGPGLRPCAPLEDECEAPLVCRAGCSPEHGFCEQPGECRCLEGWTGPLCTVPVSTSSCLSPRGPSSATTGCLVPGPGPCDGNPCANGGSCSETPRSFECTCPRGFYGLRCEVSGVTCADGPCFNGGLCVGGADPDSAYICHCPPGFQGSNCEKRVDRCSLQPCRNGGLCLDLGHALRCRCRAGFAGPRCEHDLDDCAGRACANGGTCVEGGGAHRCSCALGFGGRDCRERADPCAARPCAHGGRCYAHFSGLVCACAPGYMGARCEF
Description: Kinetic binding parameters and binding affinities of two domain (2D) ankyrin repeat proteins comprising an ankyrin repeat domain with binding specificity for DLL3 and an ankyrin repeat domain with binding specificity for serum albumin were determined by surface plasmon resonance (SPR) multi-trace analysis.
In brief, a SPR assay was used to determine the binding kinetics to the target human DLL3. The data were generated using BioRad ProteOn instrument in SPR running buffer (PBS, pH 7.4 containing 0.005% Tween 20®). […] The chip was coated with biotinylated target (bio-DLL3) to reach a signal intensity of 1780 RU. […] Each injection was followed by a regeneration step with 16 mM H₃PO₄ for 18 s. […] The bio-DLL3 target used was as described in U.S. 63/550,951, i.e. the extracellular domain (ECD) of human DLL3 protein (Q9NYJ7, Gene ID: 10683, residues 27 to 466; purchased from Evitria) linked via an Avi-tag (for site-directed biotinylation), followed by a 3C protease recognition site, to a Fc knob into hole (hDLL3 ECD-Avi-Fcₖᵢₕ).

[4] = biological target: T3, human serum albumin (human, UniProt P02768 25-609); assay: SPR (Bruker Sierra SPR-32), HSA on chip, DARPin as analyte, 1:1 Langmuir fit
T3 construct: also called HSA
Description: (§3) Similarly, a SPR assay was used to determine the binding kinetics to human or mouse serum albumin. […] All analytes (3-fold dilution ranging from 1000-12.35 nM) were injected in succession for 240 s (25 μl/min) and dissociation was recorded for 600 s (25 μl/min).

[5] = biological target: T4, mouse serum albumin (mouse, UniProt P07724 25-608); assay: SPR (Bruker Sierra SPR-32), MSA on chip, DARPin as analyte, 1:1 Langmuir fit
T4 construct: also called MSA
T4 sequence (P07724 25-608 limits assumed): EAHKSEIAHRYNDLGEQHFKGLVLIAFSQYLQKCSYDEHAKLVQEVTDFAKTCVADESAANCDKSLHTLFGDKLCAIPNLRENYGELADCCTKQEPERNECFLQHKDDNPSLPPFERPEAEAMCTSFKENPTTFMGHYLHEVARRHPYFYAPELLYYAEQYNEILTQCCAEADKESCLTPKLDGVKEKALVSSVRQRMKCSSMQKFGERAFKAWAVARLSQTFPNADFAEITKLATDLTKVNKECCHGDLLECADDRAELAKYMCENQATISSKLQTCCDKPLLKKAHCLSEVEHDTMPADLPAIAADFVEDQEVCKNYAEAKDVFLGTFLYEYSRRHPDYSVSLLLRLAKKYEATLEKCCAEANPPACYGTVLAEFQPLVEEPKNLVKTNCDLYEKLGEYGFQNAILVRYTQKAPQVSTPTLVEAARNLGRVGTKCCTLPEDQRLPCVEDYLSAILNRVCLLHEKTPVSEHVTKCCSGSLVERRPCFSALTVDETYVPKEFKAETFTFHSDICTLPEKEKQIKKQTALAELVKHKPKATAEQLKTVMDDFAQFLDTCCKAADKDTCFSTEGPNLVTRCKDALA
Description: as §3

[6] = Dose response finding (tolerability) in WT CD1 mice
[7] = Pharmacokinetic analysis in WT BALBc mice (serum, ELISA); type: in vivo, mouse; details: 1 mg/kg i.v.
Description: The pharmacokinetic (PK) properties of lead-labelled DARPin (MAM160, MAM279, MAM282, MAM283) conjugates were investigated in mice, including to determine the terminal half-life (or serum half-life) of these conjugates.
In brief, DARPins MAM279, MAM283, MAM160 and MAM282 were conjugated to the chelator DOTAM, via a C-terminal Cysteine containing tag and a connector, as described in Example 3. The conjugates were then labelled with natural lead (Pb). The protein components of the conjugates corresponded to SEQ ID NOs: 15 to 18, respectively. These lead-labelled DARPin conjugates were injected i.v. at 1 mg/kg into WT BALBc mice. Serum was collected 2 min, 10 min, 30 min, 1 h, 4 h, 24 h, 48 h, and 72 h post-injection. DARPins were detected and measured by ELISA. The data were expressed as the DARPin concentration in serum (nmol/L).
In brief, lead-labelled MAM279 conjugate, as described in Example 13, was injected i. at 0.1 mg/kg or at 1 mg/kg into the tail vein of WT BALBc mice. Serum was collected 2 min, 10 min, 30 min, 1 h, 4 h, 24 h, 48 h, and 72 h post-injection for MAM279 conjugate injected at 1 mg/kg, and 2 min, 30 min, 4 h, 24 h, 30 h, 48 h, 72 h, 96 h, and 168 h post-injection for MAM279 conjugate injected at 0.1 mg/kg. DARPins were detected and measured by ELISA. The data were expressed as the DARPin concentration in serum (nmol/L).
In brief, natural lead-labelled MAM279 conjugate, as described in Example 13, was injected i.v. at different doses (0.001 mg/kg, 0.01 mg/kg, 0.1 mg/kg, or 1 mg/kg) into the tail vein of WT BALBc mice. Similarly, unconjugated Rova was injected iv. at 1 mg/kg into the tail vein of WT BALBc mice. Serum was collected 2 min, 10 min, 30 min, 1 h, 4 h, 24 h, 48 h, and 72 h post-injection for MAM279 conjugate injected at 1 mg/kg, and 2 min, 30 min, 4 h, 24 h, 30 h, 48 h, 72 h, 96 h, and 168 h post-injection for MAM279 conjugate injected at 0.1 mg/kg, 0.01 mg/kg and 0.001 mg/kg. Serum was collected 2 min, 30 min, 4 h, 24 h, 30 h, 48 h, 72 h, 96 h, and 168 h post-injection for Rova antibody injected at 1 mg/kg. DARPins and Rova were detected and measured by ELISA. Rova PK characteristics were calculated with time points between 4 h and 168 h and MAM279 conjugate PK characteristics were calculated with time points between 4 h and 72 h. The data were expressed as the DARPin or Rova concentration in serum (nmol/L). Results are shown in FIGS. 19A and 19B and Table 22.

B1: MAM160 (two domain ankyrin repeat protein, N-terminal His6-TEV tag) (designed binder)
chain: MRGSHHHHHHENLYFQDLGKKLLEAARAGQDDEVRELLKAGADVNAKDYFSHTPLHLAARNGHLKIVEVLLKAGADVNAKDFAGKTPLHLAADAGHLEIVEVLLKAGADVNAQDIFGKTPADIAADAGHEDIAEVLQKAAGSPTPTPTTPTPTPTTPTPTPTGSDLGTKLLSAAADGQDDEVRELLQAGADVNAKDLFGYTPLHLAAWRGHLEIVEVLLEAGADVNAKDAAGLTPLHLAAWFGHLEIVEVLLEAGADVNAQDVQGVTPADLAAKEGHEDIAEVLQQAA
notes: also called 2D DARPin
[1]
  EC50: 36.6 nM
[2]
  EC50: 18.9 nM
[3]
  Kd: 1.99 nM
  koff: 2.01e-05 s⁻¹
  kon: 10100 M⁻¹ s⁻¹
[4]
  Kd: 95.9 nM
  koff: 0.0105 s⁻¹
  kon: 110000 M⁻¹ s⁻¹
[5]
  Kd: 336 nM
  koff: 0.0271 s⁻¹
  kon: 80400 M⁻¹ s⁻¹

B2: MAM283 conjugate: SEQ ID NO: 16 conjugated to DOTAM-maleimide, labelled with Pb-212 (natural lead in PK studies) (conjugate)
chain: GSDLGKKLLEAARAGQDDEVRELLKAGADVNAKDYFSHTPLHLAARNGHLKIVEVLLKAGADVNAKDFAGKTPLHLAADAGHLEIVEVLLKAGADVNAQDIFGKTPADIAADAGHEDIAEVLQKAAGSPTPTPTTPTPTPTTPTPTPTGSDLGKKLLAAAADGQDDEVRELLQAGADVNAKDLFGYTPLHLAAWRGHLEIVEVLLEAGADVNAKDAAGETPLHLAAWFGHLEIVEVLLEAGADVNAQDVQGKTPADLAAKEGHEDIAEVLQQAAGSGSC
modifications: DOTAM-maleimide, Pb-212 label; Ankyrin repeat protein with tag (GS-MAM283-tag)
[6]; Pb-212 labelled conjugate injected once at 10 μCi, 20 μCi and 30 μCi i.v., WT CD1 mice
  appearance of animals: animals appeared healthy and active
[6]; Pb-212 labelled conjugate injected once at 10 μCi, 20 μCi and 30 μCi, WT CD1 mice, recovered within up to about 10 days
  body weight (BW) change: Minimal weight loss
[6]; Pb-212 labelled conjugate, injected dose of 60 μCi, WT CD1 mice
  toxicity: Toxicity was observed
[6]; within up to 28 days after injection of 10 μCi, 20 μCi and 30 μCi doses (data not shown)
  hematology profile (white blood cells, lymphocytes, monocytes, neutrophils): complete recovery
[7]
  serum half-life: 12.7 h
